Data on one molecule can be found in PMC6486544 (Nucleic Acids Research, 2019).

Test [1] concerns the target U1A RRM1 (1-126) (UniProt P09012 1-126). The test can be described thus: NMR titration.
In test [2] the target is GB1-U1A (1-282) (UniProt P09012 1-282). The test can be described thus: NMR titration.
GB1-U1A (1-282), sequence (P09012 whole entry): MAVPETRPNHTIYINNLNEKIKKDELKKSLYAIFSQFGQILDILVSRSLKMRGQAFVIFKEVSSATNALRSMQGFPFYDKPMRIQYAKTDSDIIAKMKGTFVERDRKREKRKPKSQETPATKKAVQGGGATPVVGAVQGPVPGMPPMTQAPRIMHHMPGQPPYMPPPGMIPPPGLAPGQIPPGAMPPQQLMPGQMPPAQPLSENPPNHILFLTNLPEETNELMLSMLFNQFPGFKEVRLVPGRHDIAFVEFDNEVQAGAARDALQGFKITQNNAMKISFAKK

U1A RRM1 (1-126), sequence (P09012 1-126): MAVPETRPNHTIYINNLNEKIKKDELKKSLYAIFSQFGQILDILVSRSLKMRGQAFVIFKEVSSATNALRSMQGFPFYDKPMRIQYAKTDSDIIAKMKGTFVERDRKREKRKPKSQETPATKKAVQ

B1: GB1-hSAM68 (C2) (domain or fragment, human, UniProt Q07666 365-443, looked up)
chain: TYEEYGYDDTYAEQSYEGYEGYYSQSQGDSEYYDYGHGEVQDSYEAYGQDDWNGTRPSLKAPPARPVKGAYREHPYGRY
With B1, the binding result in test [1] and in test [2] was “binds” each time.
